From the DeepSol protein solubility set

assay: soluble on expression in E. coli; label from the status in PepcDB or PDB records

| Sequence | soluble on expression in E. coli |
| --- | --- |
| MSPMNRQRKNKSNVLNEKDERPGCIIKEKSSVRSMAKTQPTSGRTISLSEINKPIALSKKNTEIKAAVEIQNRLTKKMAKNSERRKKMAHGPEMTAQNRTQERIDFVEFLDRHYQVMQAGVSTVKVHKMHYTKEEFENVIYEAQTIFSSEKALVDIDPPCVVVGNLHGQFNDLINMFILLGRPPETVYVFTECVTSIPKCGEEIWALFQRCFNNLPISALIATKILCMHGGLSPALTCLDELRNHPKPIRNPFRGIVNDMLWADPDPSVFEWKTSSRGSGFTFGTNVIDDVCKRLGVELIIRAHQMCFDGYWVLSGRKLITIFSAPMYCNFYKNTGCVLKVDETLGIQTVAFVPESENIEKIIEEMNRVWDISIDCIE | not soluble |
| MSPQVSIVIPNHDYGRYLDACLDSLAAQTLPVQRMEVIVVDDASGDDSLERAARWQACHPWKAFTVVPLSRVGRPGPVRNAGLRRAQAALMLCLDPDDTLAPEALVRMVEALDNAPHAHVASSDYFEHRGEHIRRVNIPDDDSNVLPTQNPCHSASLFRREVWEATGGYTAATAYEDWDFWVRAASCGMRRVRVPYPLVHYRLRDDGFWVGASADDAKAKAAIVRRTPAFFAPEVRGWAVAILRGETWMPAFPRGVIPTAEALRAFRDDCMARLGPQADSLFTALPGWPRKTGESSRSGETGQSGLEHHHHHH | not soluble |
| MSQEVEETLKRIQSHKGVVGTIVVNNEGIPVKSTLDNTTTVQYAGLMSQLADKARSVVRDLDPSNDMTFLRVRSKKHEIMVAPDKDFILIVIQNPTD | soluble |
| MSQIIWGAYAQRNTEDHPPAYAPGYKTSVLRSPKNALISIAETLSEVTAPHFSADKFGPKDNDLILNYAKDGLPIGERVIVHGYVRDQFGRPVKNALVEVWQANASGRYRHPNDQYIGAMDPNFGGCGRMLTDDNGYYVFRTIKPGPYPWRNRINEWSPAHIHFSLIADGWAQRLISQFYFEGDTLIDSCPILKTIPSEQQRRALIALEDKSNFIEADSRCYRFDITLRGRRATYFENDLT | soluble |
| MSQMELIKKLREATGAGMMDVKRALEDAGWDEEKAVQLLRERGAMKAAKKADREAREGIIGHYIHHNQRVGVLVELNCETDFVARNELFQNLAKDLAMHIAMMNPRYVSAEEIPAEELEKERQIYIQAALNEGKPQQIAEKIAEGRLKKYLEEVVLLEQPFVKDDKVKVKELIQQAIAKIGENIVVRRFCRFELGA | soluble |
| MSQNHVIELANTLKQRPIVCDYTGGRFRLTNEGLTYIGIDRDGTPLPPRWICAPLHIVAKTRDAQSGEWGRLLEWQDDDGITHQWAMPLALLQGDASDVRRELARLGLSISPHRTARDLLASYLQVFPVDARARCVDKLGWHGDVFVTASQCIGQSTEKIVFQNTNAIEPAMSIKGSVDKWRDSIGRLASGNSRLVFAISVALAPVLAKIVGEDSGGFHFRGASSSGKSTALSLAASVWGNPQSYCRLWRSTTNGLEGLAALHNDGLLILDELSQMDPREAGEAAYLLANGQGKTRASRTGTVRQSSRWSLFFLSAGEESLTALMAKSGQRINAGQEIRLADIEADAGCQMGIFETIHDQLSPASMALSLKKYSSGYHGAIGRAWLNQVVANRQTISRFITDTIQSFVDIVIQPDATGQIIRVARRFALVAAAGELASQFGLTGWKKGESFHAAKTCFIAWQDAFGVDGHREDRAIMAQVRAFFESHGASRFDNVNSPNNDKILNRAGFYHTDGEGFRIYMVLTETYKNELCKGFDQRTVTRVLLQAGWLKPASDGKASHKPRIKGVGTPRLYVFTGKIWGGELEHHHHHH | soluble |
| MSQQKSDFADDADIDESLDELASEETIEETVENLEANGFEVIVVNSADDALAELQSLIPAEASVMNGHSTTLEEIGFDEYLSDGDHGWESLPEEIWSIDDDAKRQAARRESQTADYFLGGINGISQTGELVAADRSGSRIGAYPFAASNVVIVSGVNKIVPTLEDALDRLETVAYPLENERAKEAYGVDSAIAKQLILRQELEEGRTTVVLIREHLGYLEHHHHHH | soluble |
| MSQSKADYINVIGAGLAGSEAAYQIAKRGIPVKLYEMRGVKATPQHKTTNFAELVCSNSFRGDSLTNAVGLLKEEMRRLDSIIMRNGEAHRVPAGGAMAVDREGYAEAVTAEIESHPLIEVIRKEITEIPDDAITVIASGPLTSDALAEKIHELNGGDGFYFYDAAAPIVDKATIDMNKVYLKSRYDKGEAAYLNCPMTKEEFMAFYEALTTAEEAPLNSFEKEKYFEGCMPIEVMAKRGIKTMLYGPMKPVGLEYPEDYMGPRDGDFKTPYAVVQLRQDNAAGSLYNIVGFQTHLKWGEQKRVFQMIPGLENAEFVRYGVMHRNSYMDSPNLLKQTFQSKSNPNLFFAGQMTGVEGYVESAASGLVAGINAARLFKGEDEVIFPHTTAIGSLPYYVTHAESKHFQPMNVNFGIIKELEGPRIRDKKERYEKIAERSLKDLQTFIDALEHHHHHH | soluble |
| MSQSLFSQPLNVINVGIAMFSDDLKKQHVEVTQLDWTPPGQGNMQVVQALDNIADSPLADKIAAANQQALERIIQSHPVLIGFDQAINVVPGMTAKTILHAGPPITWEKMCGAMKGAVTGALVFEGLAKDLDEAAELAASGEITFSPCHEHDCVGSMAGVTSASMFMHIVKNKTYGNIAYTNMSEQMAKILRMGANDQSVIDRLNWMRDVQGPILRDAMKIIGEIDLRLMLAQALHMGDECHNRNNAGTTLLIQALTPGIIQAGYSVEQQREVFEFVASSDYFSGPTWMAMCKAAMDAAHGIEYSTVVTTMARNGVEFGLRVSGLPGQWFTGPAQQVIGPMFAGYKPEDSGLDIGDSAITETYGIGGFAMATAPAIVALVGGTVEEAIDFSRQMREITLGENPNVTIPLLGFMGVPSAIDITRVGSSGILPVINTAIAHKDAGVGMIGAGIVHPPFACFEKAILGWCERYGV | soluble |
| MSQTLKQLAMAKMAGFRHKTVVVPEWEGVKVVLREPSGEAWLRWQEVVKGGGDDENVSVSEKAHRNLCADVVLFIDVLCDTDKQPVFSVDEEEQVREIYGPVHSRLLKQALDLINNADEAREKSQPPA | not soluble |
| MSQTPPPKDGKNPEAMEVEDAIDEEILKMSTEDLKSRTHLLDNEIRIMRSEVQRINHSATTLKERIKENTERIKVNKTLPYLVSNVVELLDLEDNTEEEGANVDLDAQKTKCAVIKTSTRATYFLPVVGLVDPDELKPGDLVGVNKDSYLILEKLPAEYDSRVKAMEVDERPTEQYSDIGGCDKQIQELIEAVVLPMTHKDRFVNLGIHPPKGVLMYGPPGTGKTMMARAVAAQTKSTFLKLAGPQLVQMFIGDGAKLVRDAFALAKEKAPAIIFIDELDAIGTKRFDSEKAGDREVQRTMLELLNQLDGFQPNDDIKVIAATNRIDVLDPALLRSGRLDRKIELPHPNEDARARIMQIHSRKMNVNKDVNFEELARCTDDFNGAQCKAVCVEAGMIALRRDATEILHEDFMDAILEVQAKKKASLNYYA | not soluble |
| MSQVTEQSVRFQTALASIKLIQASAVLDLTEDDFDFLTSNKVWIATDRSRARRCVEACVYGTLDFVGYPRFPAPVEFIAAVIAYYVHPVNIQTACLIMEGAEFTENIINGVERPVKAAELFAFTLRVRAGNTDVLTDAEENVRQKLRAEGVM | soluble |
| MSQYSENIIIGAGAAGLFCAAQLAKLGKSVTVFDNGKKIGRKILMSGGGFCNFTNLEVTPAHYLSQNPHFVKSALARYTNWDFISLVAEQGITYHEKELGQLFCDEGAEQIVEMLKSECDKYGAKILLRSEVSQVERIQNDEKVRFVLQVNSTQWQCKNLIVATGGLSMPGLGATPFGYQIAEQFGIPVIPPRASLVPFTYRETDKFLTALSGISLPVTITALCGKSFYNQLLFTHRGISGPAVLQISNYWQPTESVEIDLLPNHNVEEEINQAKQSSPKQMLKTILVRLLPKKLVELWIEQGIVQDEVIANISKVRVKNLVDFIHHWEFTPNGTEGYRTAEVTMGGVDTKVISSKTMESNQVSGLYFIGEVLDVTGWLGGYNFQWAWSSAYACALSISRQ | soluble |
| MSRATYIIGALAGSAVVAYVCDKVISDDKLFGGTTPGTITNKEWGAATEERLQAWPRVAGPPVVMNPISRQNFIVKSRPE | not soluble |
| MSRDIDYGNLMHTAMRGLIKTVLADVAQHGLPGAHHFFITFDTRYEGVQLADWLADRYPGEMTIVMQHWYENLDVGEDGFAITLNFGDSPEPLYIPYDAIRTFVDPSVEFGLRFESPDFDEDDEDDIEVEEEPDAPKPDAEVVSLDSFRKPLEHHHHHH | soluble |
| MSREANPFKKMPTILMPDELMAKALRRGEKVANEMRQKELPWLLKARFVEEHKVRTIASVVADNLQKVIDKTPPVRKLPKFYQEMVEVLVGIDDFKKSMGAFKWASELVRKLGNEYARKIRKARTPQQAGKLRKEFVGRVKSILEQIHPEMAFVAVAREKLKDLPTFKDLPTVVIAGYPNVGKSTLLKKLTGADVEINSYPFTTKGINVGYIGEIQMVDTPGLLDRPLYERNDIELQAILALNYLANLILFIIDASEFCGYTIEEQINLLKEIKDLFKAPIVVAINKIDLVDEERVKEIEEKLKEVGIEEILKISADKDIGLDELKERLKKIAIKEFLKDKDAENKELECLEHHHHHH | soluble |
| MSRHPLKIVIAGAGIGGLAAAACLKAAGFEVELYERARELRAVGSALSLMPNALTALERVGVRPDLTRAQAFDSLRFLTRRGRPIRAIDFGGLARQLGQPSLAIHRASLQQALLEQARDCRIELGVSATGYLRHADGEGVTVLCSDGREVHADVLIGADGFNSAIRATMTGPERPTDWHYVIWRATPAFRHPKVTPGYVAHYWGRGQRFGLADIGEGNVYWWGTRNMPAEQAKDWRGGKAGIQRLYAGWADEVQAVIEATPEADISSLPAQDRPFLERWGDGPVTLLGDAAHPMLTSLGQGAAIAIEDAAVLAHCLATIDDPQAALRAYENRRRDRARAMVETSRALSRIEQLEHPLRTVARDLYFRFAPERTFARQNELALTFPGVELEHHHHHH | not soluble |
| MSRLPLLLLSVLLATPAAQASDCPDLALVLALDSSLSIDRAEFALQAEGYAEAFRSPAVQAALAAAGTVDVAAVVWSDGAAPPARLGWQRIAAPEDARRLAVRLAALERVAPGRTGVGGGLAAALEMLAGHGCAGRRLVNLSGDGRETLAPRMGLRGQLMRARAEAEALGATVNALAVTDEEADLPDWFRSHVIVGPGAFVMETREFRGFAEAVARKLVREIAPPALAAGRPGLPPHRLTPGGRDHPARRSLEHHHHHH | not soluble |
| MSRNDLFKQPLDTINVGIDFIHEDMKKQGIPSHQVNWAPPANGDPELLKLLDQLKNPTLYEKIQQANEEAVTRIIQSKPILVGFDKAINVMPDMTETTILHAGPPITYENMCGPMKGAVQGALVFEGLAKDLADADRVARSGAITFSPCHEHDAVGSMAGVTSPNMYVHIIKNETYGNTAFTNLSEQLAKVLRFGANDQSVVDRLIWMRDVLGPLLHDAMTFCPEGIDLRLMLSQALHMGDECHNRNVAGSTLLVQALTPYMVQTDFSREQLKEVFEFLGSSDYFSGPTWMGAAKCALDAGHNVENSTIVTTMCRNGVEFGIRVSGIGGNHWFTGPAQRVIGPMFAGYTQEDAGLDMGDSAITETYGVGGFAMAAAPAIVPLVGGTVAEALNYSKEMLEITTKENPNVTIPVLDFMGIPTGIDVLKVLETGMLPVINTAIAHKEPGIGMIGAGLTNPPANVFNEALKALVATIN | soluble |
| MSRPPLPPFTRETATQKVRMAEDAWNSRDPARVSLAYTPDSRWRNRAEFLQGRDAIVEFLTRKWAKEHDYRLIKDLWAFDGRFIAVRFQYEWRDEAGLWYRSYGNEQWEFDDDGLMRRREASINDVAISEGDRRFHWPAPGPRPDDVPGLAADPFLEHHHHHH | soluble |
| MSRQPLSREDTAILVPALNEALRIREVVTDALTYCSHVIVIDDGSDDGTAECIAGMPVTLIRHPQRMGKGAALRSGFAQAQRLGMRAVMTMDGDGQHKAADFPRLLAAANRHPGCVIIGARMRKRATQPTIRRIGNDFGDWGIAWGCGFRLIDSQSGQRLYPASVFTLPNVPGEGFVFEAQLLISAARQAGARVVAVPIETRYAGTSPGTFRKSHFRLVRDLWNITSHVVKQVWAYGHVWREYRRVRANPVIVDDPDGEFATVPAVTKSNHSSLEHHHHHH | not soluble |
